Measured values published in publication PMC2815101.

Legend:
[1] = test system: CC(=O)OCC1=C(C(=O)O)N2C(=O)[C@@H](NC(=O)Cc3cccs3)[C@H]2SC1; assay: Michaelis-Menten hydrolysis kinetics, purified enzyme; assay type: biochemical, Escherichia coli; conditions: active site (catalytic Ser64)
[2] = test system: CO/N=C(\C(=O)N[C@@H]1C(=O)N2C(C(=O)O)=C(COC(C)=O)CS[C@H]12)c1csc(N)n1; assay: as above; assay type: biochemical, Escherichia coli; conditions: active site (catalytic Ser64)

With “AmpC β-lactamase (Escherichia coli K-12; E235K)” the Km [1] was 24 µM, the kcat [1] was 84.6 s⁻¹ and the Km [2] was 77 µM. It also gave a kcat [2] of 6.9 s⁻¹.

Substance “AmpC β-lactamase (Escherichia coli K-12; T86I)” has a Km [2] of 295 µM and a kcat [2] of 9.2 s⁻¹.
